Assay results published in the domain aggregation screens of Martell et al. (2025).

Assay: soluble fraction after stress (log2 fold change); higher = more stays soluble; pooled small domains, quantitative proteomics
Conditions: stress: 50 degC
How it was run: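 The stress applied to every library was 50°C. These custom libraries of small protein domains were pooled and measured at high throughput with quantitative proteomics as the read-out. Aggregation propensity is expressed as the base-two logarithm of the fold change in how much of each protein remains soluble. The higher the value, the more of that protein stays in solution.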

| Sequence | soluble fraction (log2) |
| --- | --- |
| HMTSNSLNLKDEISAFLTKNAGISYSAERIAHALNMDNADQFTPIIQTLAQLEREKKVRVTDKGEFEAVIK | 0.0897 |
| HMFSDDEINRLKARDSILVNLRDSEKQVWELYTDGKTVQNIANQLNKHKQSISATIINIKNKISRKQNMLK | -0.534 |
| HMSQAVTMLKAGRLLANSKGTGAAVRDLEPGMLLYPTGQKDGTMWEVEDEMGNKGWVNSTSMQLA | 0.188 |
| HMRPKVADIDYFDGKTFTIEDGSKHSITTSEAKKIYFYLVKNGYVDDESHVTDAYRSAATSGTLA | -0.0505 |
| HMAENTIPSVIGKTLSDATFLLESYGYERGGVSEEYSEMPKGVVIRQSPQAGSSADPGTKVNLVVSLGEEI | 0.174 |
| HMDVFTAKTASHIQELREKLGQQAVFGRSDVQNALGLKATRSSALLREMAEHGIIEPVTGYGKGRYHFRS | 0.225 |
| HMQSKDDLLDTFRVVKGNAALLNDQNKKLIRSLKVSSFGFTGITDQAAEVKKEMPDVLLEKASIEDILF | -0.12 |
| HMQDEAQLSMSNKYIFEGNSIVKDNFIEAEKKYRLGVSAKPNNAVGSYNLANAYYNSKLYDEAMLRLL | 0.272 |
| HMKLTTRQTEIINIVKAEQPISGEKIAQNLGLSRATLRNDLSILTMTGLLDAKPKVGYFYTGQ | -0.447 |
| HMADLPQATALADVKGDVQMQGIQFGYDPEKIIIHDLNLHARPGSLVAIVGPTGAGKTTIINLLMRFYD | -0.313 |
| HMSGKMTVPNVVGKTETEAKSALSAKGFTNVRTETVDSTEAAGTVVKQSLDADSVQDPKTEIVLSVSNG | 0.608 |
| HMTRRVIRAPAAGIMRSNVKLGDLVKEGDVIAWIGEHEIKAPLTGMVRGLLNDGLAVVGGFKIGDI | -0.175 |
| HMAPVTPEERAQAMEEYKAMVTIEGYTPPKNIIEQNYKRGLWSETMLNMAVTKGAITEAEKLEIMN | 0.124 |
| HMGPSLIRIASNPVAEVFIDGTRVGTTPFEMPADGTLKTVRLTAKDHDDLVVPLRSMKSMEIMLTLRRI | -0.589 |
| HMSSNLSLHKEGNKIVILGLEGKSVIEVYDLMGRLLSSQTNYNPKQEITLLQPVIIRVTDTQQTKSFKV | -0.83 |
| HMEHIDVSGRAFDVSVSRLKRARRLTMRIDTHKQLVKISAPLHVESSTIRAFLARNQNWLEQQVEKR | -0.881 |
| HMGMGIGQIIKEKRTALKMTQNELAERLGVSQQSVTGWENNAAVPRESAVRGMMDIFGLSRNELFGEP | 0.331 |
| HMGSLQPLLLAAIDALQTHIRSGLPFRVEERLAELDQFRTELQNGSVPPQRGVNRLWAFYEDEFRL | -0.798 |
| HMKADIEQVQRAFDTLDPKNQQLVLDAMKAATAELDPNSDQFKTNTEFINDNQKALDRHAKAS | 0.125 |
| HMTVNLPPKQKAAILLMSLPPEVSAQLFKELGPDEVHAITLEISKLPPISPDVRAQVIDEFLHSS | -0.152 |
| HMITMWYYKKDGNIIGPASARKIASMRELGIITDSTPVSRKRNAKNWETFGGLSEKINLESSQWD | -1.9 |
| HMNQAIIVPDVKGLPLEEATTFFENNDLRYTVIDSVYTKDVPPGAIYEMVPGAGSKVKEGRIIFVTLNAR | -0.314 |
| HMRPIWVQLADDFRHRIVSGQWPPGSKIPSVRELAAETGVNPNTVQRALGALDGEGLTATERTAGRFVTT | -0.0768 |
| HMSKSVEQRRQQIVAWVKEHGQSQVEDLAVRFATSEVTIRKDLAALSQQGLLIRQFGGAVPVPA | -0.661 |
| HMNTTTTKVVSVSSLNMRSGPSTSYNIIEVLTKDTQVEVISVEDGWAKIKYNSKTGYVSNQYLSDKK | 0.0146 |
| HMDALKAVYQWVTRTMMKNQTGVMQTLPNRDLIELNTQITAQRLMQAGVDPTTLKNANQVENAVNIIESR | -0.473 |
| HMLLQTAVISTDIVNMRAEPTTNSSVIRKLTKGSDITINQEKDGWYKISDDQGNSGWIVTWAAKPT | 0.0497 |
| HMKEIKAPNKINAHLIEEWRSQHPTELFPEEKVDLIYYKGEEYYFVIEEKNELGEIEEWYFAYDGGIDYV | 0.106 |

| Sequence | soluble fraction (log2) |
| --- | --- |
| HMNQSKYQTIADELKSKILSGEYPENTTIPPELQLQKDYQVSRHTIRQAIALLANEGFLRKEKGSGTYVDV | 0.0512 |
| HMAKVDIPHEMVDQRIDEIVEEIKMNLESQNMSLDDYLKRMNQTEAQLRANYEATAAEQVRQGLV | 0.314 |
| HMAKLTPDQQELRAIRIELQMSQPDFADAININVPRLSSYEYGRTAGVPTSIMEAARELKRSMSR | -0.811 |
| HMTQQYVEWKVYNVTTIKNKYGFRVKLIFQDGSDATQQKGGFTSKKAAEQARTEVIGQLYSNTYVVY | -4.49 |
| HMYNKKAYVNTNSDFLNVRSEASTESSVVDKLARGTEVNIVGNIQNGFYPIVLNEKNAWVSSDWISFEKPT | 0.227 |
| HMPLITAIELDSISARSFQFNTQSGSTYFIEGSTDLKSWDVIAEVKATDSTTTYEDHRKIYHEAYFYRVRL | -2.01 |
| HMPKYLNIYHELAQRIQEGALPAETKLPSETELMQEFEASRGTVRKAIDALQEKGFVRKHQGKGVFVLSQ | -0.371 |
| HMAPAPDEAFAEFVRSSAPSLTRTAWLLTGDRGHAQDLVQNAYAKTLQAWGRLDAEGALAYTRRAVIT | 0.00536 |
| HMVSAMLLHKKEILNLLAEEPEALHFASLLRAFGGRHIKNELKQIVDDLVRSGEILRLRGNRYTLPGADN | -1.21 |
| HMFTFEDMDKFESLLTTGLTDVQRRIYSLVTHDGKEYDLIAETLGISVEAVRMHMSRARKKIRENYKKID | -2.42 |
| HMRLPLYLALAQTLRQEIDAKQYKIGAHLPPEDQLVVKYGVSRHTVRQALQELKNEGLITSKAGIGTIVSS | -0.666 |
| HMSISEADAKKIALEKVPGATDSNLRIKTDYDDGIMKYEVKIVYNEMKYEFDIDAATGTILEWESESVY | -0.659 |
| HMNMIGDVIRNLRTVSSMTQTELGQRMGVIKQTISNWEKNISTPSIDAIVKLSSIFNVPTDYLL | -1.06 |
| HMNGAVAEQARKQLMAALKASEFIAEEKLDEWLDALALPEDKRTAIVDAVDELDYEEAISELEN | 0.0153 |
| HMRSHLSANLQRLRHIAGLTQKDLALAANLPRATLASLEQGEANPRLDTLLAVASALQVGLDELIAAP | -0.866 |
| HMSKEDDSLVVTFRRMLLEEVDLHELSRIDANQRRARLERVIAHLVSREGVILSASERNQLVRRVVDEAV | -0.529 |
| HMAVSDPTAGGIKALMYPNPAQDRLSVALDIPAGLDKQAQMTVTDMMGRVVTQQQVTLNDGFQVFEL | 0.215 |
| HMAGDDEIEKIAQDILAAWPDKVAAYQAGNKGLMGLFMGELMKKSQGKANPKVASGIIQKLLD | 0.0445 |
| HMPDPHSEARNIVLNQLNFMPRSRKELETALAKRNIEADVAKIVLDRFEEIGMVDDAAYAEL | 0.159 |
| HMENTSPMTPEQSKALMAYLTKRHGDSREAYLSELSQFFGRPLSSSRELTKADVSEFLNAIN | 0.161 |
| HMEKEYMKNVVGMEYRQARVLLGDMGLELAFQPVYETSDKYPTDVVVSTEPAADQPLTKGQTVILHIST | 0.288 |
| HMQSRYALLAGMLRARITEGDWVPGSAIPAETVLAKEHGVALGTMRQAIALLVSQGLLERQHGRGTFVRS | -1.16 |
| HMKVRDTQYIIEAAISKNVIRKSKNIYYYGTDIIGRSLEDAIASLNDKKNQDIKMTILQEIES | -0.493 |
| HMSMSVLFSELDQKDAGVIVEKLKERKIPYELQSGGSAIMVPANVLHETRLQLAAEGLPQSS | 0.0439 |
| HMFWEGYLAARREQFLKDQQVLLGNEFRSNPDFWLEVASKEWAVVEERLSTGADVSEEVQETMGLDF | -2.16 |
| HMKPFSLESYKAFVVKRLGLFPETSSAQMHDWLKEEYPDFPLITPRTVYNFVMKIRQDYGIAKV | -3.66 |
| HMRSDHVFTSHLARRDKYISELESLSDSARDDHIQTIKEEDEYLLKYRRTRNLFGIPLNDEMKQFEPFNY | -0.131 |
